Data reported in article PMC6643046.

Tests used:
[1] = target: His-Halo-PRDM9^Cst ZnF1-11 (Mus musculus castaneus (CAST/EiJ strain)); experiment: native gel or EMSA; multimer assay II as a2, with the semipure (ion-exchange) Halo-tagged construct; the shifted band was shown by MALDI-TOF mass spectrometry to hold mainly PRDM9 peptides
[2] = target: His-MBP-eYFP-PRDM9^Dom2 ZnF (Mus musculus domesticus (C57BL/6J strain)); experiment: native gel or EMSA; multimer assay II: construct bound to a 75-bp DNA (Hlx1 for PRDM9^Cst, Pbx1 for PRDM9^Dom2), native gel; MW of the lower shift read against a ladder of free DNA (75-740 bp) and divided by the monomer's MW; four replicates; crude bacterial lysates or in vitro expressed protein
[3] = target: His-PRDM9^Cst ZnF1-11 (Mus musculus castaneus (CAST/EiJ strain)); experiment: native gel or EMSA; multimer assay I: construct bound to single-Hlx1 and tandem-Hlx1 DNA fragments of rising length, native 5% polyacrylamide gel; MW of the second complex (supershift) read from the regression of the lower shifts and divided by the monomer's MW; crude bacterial lysates or in vitro expressed protein
[4] = target: MBP-ZnF-Cst (Mus musculus castaneus (CAST/EiJ)) (UniProt Q96EQ9); experiment: EMSA; settings: 10 mM Tris pH 7.5, 50 mM KCl, 50 uM ZnCl2, 0.05% NP-40 (1x TKZN), usually 50 ng/ul polydIdC, 60 min at RT, 5% native PAGE in 0.5x TBE
[5] = target: His-PRDM9^Cst ZnF2–6 (Mus musculus castaneus (CAST/EiJ strain)); experiment: native gel or EMSA; multimer assay II: construct bound to a 75-bp DNA (Hlx1 for PRDM9^Cst, Pbx1 for PRDM9^Dom2), native gel; MW of the lower shift read against a ladder of free DNA (75-740 bp) and divided by the monomer's MW; four replicates; crude bacterial lysates or in vitro expressed protein
[6] = target: His-PRDM9^Cst ZnF2–6 (Mus musculus castaneus (CAST/EiJ strain)); experiment: native gel or EMSA; multimer assay I: construct bound to single-Hlx1 and tandem-Hlx1 DNA fragments of rising length, native 5% polyacrylamide gel; MW of the second complex (supershift) read from the regression of the lower shifts and divided by the monomer's MW; crude bacterial lysates or in vitro expressed protein
[7] = target: His-eYFP-PRDM9^Cst ZnF2-11 (Mus musculus castaneus (CAST/EiJ strain)); experiment: native gel or EMSA; multimer assay II: construct bound to a 75-bp DNA (Hlx1 for PRDM9^Cst, Pbx1 for PRDM9^Dom2), native gel; MW of the lower shift read against a ladder of free DNA (75-740 bp) and divided by the monomer's MW; four replicates; crude bacterial lysates or in vitro expressed protein
[8] = target: His-eYFP-PRDM9^Cst ZnF2-11 (Mus musculus castaneus (CAST/EiJ strain)); experiment: native gel or EMSA; multimer assay I: construct bound to single-Hlx1 and tandem-Hlx1 DNA fragments of rising length, native 5% polyacrylamide gel; MW of the second complex (supershift) read from the regression of the lower shifts and divided by the monomer's MW; crude bacterial lysates or in vitro expressed protein
[9] = target: His-PRDM9^Cst ZnF (Mus musculus castaneus (CAST/EiJ strain)); experiment: as above
[10] = target: His-eYFP-PRDM9^Cst (full-length PRDM9^Cst with KRAB, SSXRD, PR/SET and ZnF domains) (Mus musculus castaneus (CAST/EiJ strain)); experiment: native gel or EMSA; multimer assay II: construct bound to a 75-bp DNA (Hlx1 for PRDM9^Cst, Pbx1 for PRDM9^Dom2), native gel; MW of the lower shift read against a ladder of free DNA (75-740 bp) and divided by the monomer's MW; four replicates; crude bacterial lysates or in vitro expressed protein
[11] = target: His-eYFP-PRDM9^Cst ZnF (Mus musculus castaneus (CAST/EiJ strain)); experiment: native gel or EMSA; multimer assay I: construct bound to single-Hlx1 and tandem-Hlx1 DNA fragments of rising length, native 5% polyacrylamide gel; MW of the second complex (supershift) read from the regression of the lower shifts and divided by the monomer's MW; crude bacterial lysates or in vitro expressed protein
[12] = target: His-eYFP-PRDM9^Cst ZnF1-11 (Mus musculus castaneus (CAST/EiJ strain)); experiment: native gel or EMSA; multimer assay II: construct bound to a 75-bp DNA (Hlx1 for PRDM9^Cst, Pbx1 for PRDM9^Dom2), native gel; MW of the lower shift read against a ladder of free DNA (75-740 bp) and divided by the monomer's MW; four replicates; crude bacterial lysates or in vitro expressed protein
[13] = target: His-eYFP-PRDM9^Cst ZnF1-11 (Mus musculus castaneus (CAST/EiJ strain)); experiment: native gel or EMSA; multimer assay I: construct bound to single-Hlx1 and tandem-Hlx1 DNA fragments of rising length, native 5% polyacrylamide gel; MW of the second complex (supershift) read from the regression of the lower shifts and divided by the monomer's MW; crude bacterial lysates or in vitro expressed protein
[14] = target: His-MBP-eYFP-PRDM9^Cst ZnF (Mus musculus castaneus (CAST/EiJ strain)); experiment: native gel or EMSA; multimer assay II: construct bound to a 75-bp DNA (Hlx1 for PRDM9^Cst, Pbx1 for PRDM9^Dom2), native gel; MW of the lower shift read against a ladder of free DNA (75-740 bp) and divided by the monomer's MW; four replicates; crude bacterial lysates or in vitro expressed protein
[15] = target: His-PRDM9^Cst ZnF2-8 (Mus musculus castaneus (CAST/EiJ strain)); experiment: as above
[16] = target: His-PRDM9^Cst ZnF2-8 (Mus musculus castaneus (CAST/EiJ strain)); experiment: native gel or EMSA; multimer assay I: construct bound to single-Hlx1 and tandem-Hlx1 DNA fragments of rising length, native 5% polyacrylamide gel; MW of the second complex (supershift) read from the regression of the lower shifts and divided by the monomer's MW; crude bacterial lysates or in vitro expressed protein

In the case of “His-Halo-PRDM9^Cst ZnF1-11 (domain or fragment)”, the stoichiometry N [1] is reported as 3.

Work on “His-MBP-eYFP-PRDM9^Dom2 ZnF (domain or fragment)” yielded a stoichiometry N [2] of 3.

“His-PRDM9^Cst ZnF1-11 (domain or fragment)” gave a stoichiometry N [3] of 3.

In the case of “AACCCTGAGCTGCCTAAAGGTCAAATAGTGTGCAGACTTGGACCCTGCCCTTTCTTTAATAGTGTGCAGACTTGGACCCTGCCCTTTCTTTCTGCTGTGAATACCAGAGGCACA (double strand) [tandem-Hlx1 114 bp]”, the Kd ([4]; sum of lower shift and supershift, two complexes) is reported as 35 nM.

“GTGGGAGGAGATGGTGGGTGAATAGTGTGCAGACTTGGACCCTGCCCTTTCTTTACGCATTCCACTAACCATGGG (double strand) [single-Hlx1 75 bp]” was tested, and the Kd ([4]; 60 min incubation) was 48 nM.

“His-PRDM9^Cst ZnF2–6 (domain or fragment)” showed a stoichiometry N [5] of 2.9 and a stoichiometry N [6] of 2.9.

“His-eYFP-PRDM9^Cst ZnF2-11 (domain or fragment)” gave a stoichiometry N [7] of 3 and a stoichiometry N [8] of 2.7.

Work on His-PRDM9^Cst ZnF (domain or fragment) yielded a stoichiometry N [9] of 3.

In the case of “His-eYFP-PRDM9^Cst (full-length PRDM9^Cst with KRAB, SSXRD, PR/SET and ZnF domains) (natural protein)”, the stoichiometry N [10] is reported as 3.

Substance “His-eYFP-PRDM9^Cst ZnF (domain or fragment)” has a stoichiometry N [11] of 3.

“His-eYFP-PRDM9^Cst ZnF1-11 (domain or fragment)” was tested, and the stoichiometry N [12] was 3.5 and the stoichiometry N [13] was 3.8.

“His-MBP-eYFP-PRDM9^Cst ZnF (domain or fragment)” showed a stoichiometry N [14] of 3.

“His-PRDM9^Cst ZnF2-8 (domain or fragment)” showed a stoichiometry N [15] of 2.5 and a stoichiometry N [16] of 2.7.
